This is an account of results in patent US20180280423A1 (NATIONAL YANG MING UNIVERSITY, published 2018).

This test addresses T1, epidermal growth factor receptor (EGFR) (human, UniProt P00533 25-1210).
T1 construct: whole, on cells; Endogenous EGFR in human HNSCC cells, or wild-type pHA-EGFR where transfected; also called ErbB1; total EGFR
Description: interaction of transfected LTβ with EGFR (method not named; immunoprecipitation in Methods).
Description: For immunoprecipitation, the lysates were mixed with an equal amount of Co-IP buffer. The primary antibody or IgG was added to the lysates, and the reactions were incubated and then blocked with protein A beads overnight. The beads were collected and washed gently prior to immunoblotting. ImageJ software was used for densitometric measurements of the western blots.

B1: Ectopic LTβ (ligand)
chain: MGALGLEGRGGRLQGRGSLLLAVAGATSLVTLLLAVPITVLAVLALVPQDQGGLVTETADPGAQAQQGLGFQKLPEEEPETDLSPGLPAAHLIGAPLKGQGLGWETTKEQAFLTSGTQFSDAEGLALPQDGLYYLYCLVGYRGRAPPGGGDPQGRSVTLRSSLYRAGGAYGPGTPELLLEGAETVTPVLDPARRQGYGPLWYTSVGFGGLVQLRRGERVYVNISHPDMVDFARGKTFFGAVMVG
notes: also called pFLAG-LTB product; transfected LTβ; not shown: FLAG tag from the pFLAG-CMV2 vector
As for B1, the binding result is listed as “binds”.
